Reference: patent US20170022281A1 (AbbVie / Abbott, published 2017)

T1: human PRLR (Biacore antigen) (human, UniProt P16471 25-234, limits assumed)
T1 construct: The construct injected over captured antibody is not described (a soluble form is likely); also called huPRLR
T1 sequence: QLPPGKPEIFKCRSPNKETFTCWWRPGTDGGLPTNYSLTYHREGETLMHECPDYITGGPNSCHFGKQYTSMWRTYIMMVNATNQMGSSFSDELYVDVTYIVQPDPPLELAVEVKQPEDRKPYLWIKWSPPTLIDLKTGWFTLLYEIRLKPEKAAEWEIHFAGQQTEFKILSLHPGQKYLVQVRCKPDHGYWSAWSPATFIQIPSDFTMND

T2: cyno PRLR ECD-his6 protein (cyno)
T2 chain: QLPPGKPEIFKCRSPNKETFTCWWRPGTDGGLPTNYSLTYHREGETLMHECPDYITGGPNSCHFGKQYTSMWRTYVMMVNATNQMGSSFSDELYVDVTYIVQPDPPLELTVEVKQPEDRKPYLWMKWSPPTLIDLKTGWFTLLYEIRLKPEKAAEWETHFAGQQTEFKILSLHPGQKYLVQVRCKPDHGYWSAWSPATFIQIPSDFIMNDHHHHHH

T3: human PRLR ECD-Fc fusion protein (human, UniProt P16471 25-233)
T3 construct: not shown: Fc region (captured by goat anti-human Fc)
T3 sequence: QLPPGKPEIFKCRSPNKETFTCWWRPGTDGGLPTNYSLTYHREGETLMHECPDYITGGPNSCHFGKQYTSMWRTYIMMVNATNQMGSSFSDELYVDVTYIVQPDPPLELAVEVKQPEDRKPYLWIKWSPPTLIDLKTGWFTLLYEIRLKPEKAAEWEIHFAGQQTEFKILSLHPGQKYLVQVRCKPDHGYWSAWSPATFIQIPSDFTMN

T4: human PRLR on cells (human, UniProt P16471 25-622)
T4 sequence: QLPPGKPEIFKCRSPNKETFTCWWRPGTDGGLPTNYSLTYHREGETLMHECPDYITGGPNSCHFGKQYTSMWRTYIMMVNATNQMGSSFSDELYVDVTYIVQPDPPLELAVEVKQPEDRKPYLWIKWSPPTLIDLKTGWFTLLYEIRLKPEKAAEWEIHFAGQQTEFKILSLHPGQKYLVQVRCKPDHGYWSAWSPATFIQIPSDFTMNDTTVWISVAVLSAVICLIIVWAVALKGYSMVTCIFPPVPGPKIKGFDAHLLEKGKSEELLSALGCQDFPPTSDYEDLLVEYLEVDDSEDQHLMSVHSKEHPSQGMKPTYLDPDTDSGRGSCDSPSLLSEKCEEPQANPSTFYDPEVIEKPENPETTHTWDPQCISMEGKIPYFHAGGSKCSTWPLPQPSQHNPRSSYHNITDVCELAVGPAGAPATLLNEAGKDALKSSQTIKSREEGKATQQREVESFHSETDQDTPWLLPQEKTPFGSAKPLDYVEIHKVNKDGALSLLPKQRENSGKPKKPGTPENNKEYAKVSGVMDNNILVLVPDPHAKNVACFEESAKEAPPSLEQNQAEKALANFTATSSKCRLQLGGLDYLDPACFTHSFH

T5: mouse PRLR on Baf3-mPRLR cells (mouse, UniProt Q08501 20-608)
T5 sequence (looked up): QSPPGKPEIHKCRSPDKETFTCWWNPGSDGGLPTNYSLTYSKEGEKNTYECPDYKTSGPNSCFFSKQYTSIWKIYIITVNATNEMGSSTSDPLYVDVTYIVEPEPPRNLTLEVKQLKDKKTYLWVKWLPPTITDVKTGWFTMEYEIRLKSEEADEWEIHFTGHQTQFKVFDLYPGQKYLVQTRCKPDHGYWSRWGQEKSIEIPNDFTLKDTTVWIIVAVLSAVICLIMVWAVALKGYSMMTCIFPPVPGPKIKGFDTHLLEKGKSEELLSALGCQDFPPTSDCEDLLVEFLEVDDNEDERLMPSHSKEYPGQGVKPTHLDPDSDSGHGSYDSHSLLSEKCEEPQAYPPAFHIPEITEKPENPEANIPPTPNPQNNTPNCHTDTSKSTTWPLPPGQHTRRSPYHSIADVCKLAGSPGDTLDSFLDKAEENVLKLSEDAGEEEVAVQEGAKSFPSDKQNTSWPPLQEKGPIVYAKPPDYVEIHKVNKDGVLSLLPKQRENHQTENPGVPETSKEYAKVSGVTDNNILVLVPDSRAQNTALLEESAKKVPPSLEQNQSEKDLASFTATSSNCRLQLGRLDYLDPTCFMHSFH

T6: murine PRLR (Biacore antigen) (murine, UniProt Q08501 20-229, limits assumed)
T6 construct: also called muPRLR
T6 sequence (looked up): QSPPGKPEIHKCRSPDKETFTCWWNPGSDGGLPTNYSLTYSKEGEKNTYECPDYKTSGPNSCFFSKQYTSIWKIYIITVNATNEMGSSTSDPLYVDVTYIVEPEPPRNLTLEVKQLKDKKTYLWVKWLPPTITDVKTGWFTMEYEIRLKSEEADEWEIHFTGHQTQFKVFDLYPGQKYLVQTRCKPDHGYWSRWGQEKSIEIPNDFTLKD

T7: cyno PRLR (Biacore antigen) (cyno, UniProt A0A2K5WXK1 25-234)
T7 construct: also called cyPRLR
T7 sequence: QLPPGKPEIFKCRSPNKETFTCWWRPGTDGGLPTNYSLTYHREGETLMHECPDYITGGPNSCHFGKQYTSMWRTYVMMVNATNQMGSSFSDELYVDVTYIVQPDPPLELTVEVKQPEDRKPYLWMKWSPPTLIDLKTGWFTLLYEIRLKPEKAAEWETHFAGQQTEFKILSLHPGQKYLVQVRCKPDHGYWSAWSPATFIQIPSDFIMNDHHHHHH


Columns and labels:
[1] = target: T1, human PRLR (Biacore antigen); assay: SPR Biacore
How it was run: (§1)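 Association rate, dissociation rate and dissociation constant were measured by surface plasmon resonance on a Biacore instrument. PRLR antigen was tested at 600 nM, 66.67 nM and 7.41 nM, a 3-point, 9-fold dilution series. Constants came from a 1:1 binding model fit (local Rmax, mass-transport term included) in Biacore T200 Evaluation Software.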

[2] = target: T2, cyno PRLR ECD-his6 protein; assay: ELISA on ECD
Experimental: (§2) Plates were blocked for 1 hour with Superblock (Pierce) and washed (3×) with wash buffer (lx PBS (pH 7.4), 0.05% Tween 20). ECD proteins were bound to the appropriate antibody (1 hour) in binding buffer (wash buffer plus 10% Superblock), washed (3×, wash buffer), and then incubated with serial dilutions of antibodies (1 hour) in binding buffer. After washing (3×, wash buffer), secondary antibodies conjugated to HRP were bound (1 hour) in binding buffer, washed (3×, wash buffer), and incubated with TMB substrate (Pierce) to develop signal for 3-5 minutes, stopped with 2N H₂SO₄ and scanned at […]. Curves were fit with GraphPad 5 (Prizm) and EC50's were determined with curve fitting function of GraphPad 5.

[3] = target: T3, human PRLR ECD-Fc fusion protein; assay: ELISA on ECD
Experimental: as §2

human PRLR on cells = target: T4, human PRLR on cells; assay: cell-based or functional assay
[4] = target: cyno PRLR on Baf3-cyPRLR cells (cyno); assay: cell-based or functional assay
[5] = target: T5, mouse PRLR on Baf3-mPRLR cells; assay: cell-based or functional assay
[6] = target: T6, murine PRLR (Biacore antigen); assay: SPR Biacore
How it was run: as §1

[7] = target: T7, cyno PRLR (Biacore antigen); assay: SPR Biacore
How it was run: as §1

Row | Binder | Kd [1] | koff [1] | kon [1] | EC50 [2] | EC50 [3] | Baf3-hPRLR proliferation IC50 (human PRLR on cells) | Baf3-cyPRLR proliferation IC50 [4] | Baf3-mPRLR proliferation IC50 [5] | Kd [6] | Kd [7] | koff [7] | kon [7] | koff [6] | kon [6]
1 | Ab14 (antibody, human IgG1, kappa, V domains shown, humanized from Ab6; G1; also called Ab1 HC.1 & Ab1 LC.1) VH: EVQLVQSGAEVKKPGSSVKVSCKASGYTFTTYWMHWVRQAPGQGLEWMGEIDPSDSYSNYNQKFKDRVTITADKSTSTAYMELSSLRSEDTAVYYCARNGGLGPAWFSYWGQGTLVTVSS VL: DIQMTQSPSSVSASVGDRVTITCKASQYVGTAVAWYQQKPGKAPKLLIYSASNRYTGVPSRFSGSGSGTDFTLTISSLQPEDFATYYCQQYSSYPWTFGGGTKVEIKR | 4.16 nM | 0.00458 s⁻¹ | 1.1e+06 M⁻¹ s⁻¹ | 0.031 nM | 0.0329 nM | 0.3 µg/mL | 1.15 µg/mL | > 30 µg/mL | – | – | – | – | – | –
2 | Ab16 (antibody, human IgG1, kappa, V domains shown, humanized from Ab6; G1; also called Ab1 HC.1 and Ab1 LC.2) VH: EVQLVQSGAEVKKPGSSVKVSCKASGYTFTTYWMHWVRQAPGQGLEWMGEIDPSDSYSNYNQKFKDRVTITADKSTSTAYMELSSLRSEDTAVYYCARNGGLGPAWFSYWGQGTLVTVSS VL: EIVMTQSPATLSVSPGERATLSCKASQYVGTAVAWYQQKPGQAPRLLIYSASNRYTGIPARFSGSGSGTEFTLTISSLQSEDFAVYYCQQYSSYPWTFGGGTKVEIKR | 4.05 nM | 0.00562 s⁻¹ | 1.39e+06 M⁻¹ s⁻¹ | 0.0671 nM | 0.0641 nM | 0.46 µg/mL | 1.73 µg/mL | > 30 µg/mL | – | – | – | – | – | –
3 | Ab20 (antibody, human IgG1, kappa, V domains shown, humanized from Ab6; G1; also called Ab1 HC.1a and Ab1 LC.2) VH: EVQLVQSGAEVKKPGSSVKVSCKASGYTFTTYWMHWVRQAPGQGLEWIGEIDPSDSYSNYNQKFKDRATLTVDKSTSTAYMELSSLRSEDTAVYYCARNGGLGPAWFSYWGQGTLVTVSS VL: EIVMTQSPATLSVSPGERATLSCKASQYVGTAVAWYQQKPGQAPRLLIYSASNRYTGIPARFSGSGSGTEFTLTISSLQSEDFAVYYCQQYSSYPWTFGGGTKVEIKR | 2 nM | 0.00208 s⁻¹ | 1.04e+06 M⁻¹ s⁻¹ | 0.0711 nM | 0.0836 nM | 0.2 µg/mL | 0.5 µg/mL | > 30 µg/mL | 620 nM | – | – | – | – | –
4 | Ab18 (antibody, human IgG1, kappa, V domains shown, humanized from Ab6; G1; also called Ab1 HC.1a and Ab1 LC.1) VH: EVQLVQSGAEVKKPGSSVKVSCKASGYTFTTYWMHWVRQAPGQGLEWIGEIDPSDSYSNYNQKFKDRATLTVDKSTSTAYMELSSLRSEDTAVYYCARNGGLGPAWFSYWGQGTLVTVSS VL: DIQMTQSPSSVSASVGDRVTITCKASQYVGTAVAWYQQKPGKAPKLLIYSASNRYTGVPSRFSGSGSGTDFTLTISSLQPEDFATYYCQQYSSYPWTFGGGTKVEIKR | 1.62 nM | 0.00171 s⁻¹ | 1.06e+06 M⁻¹ s⁻¹ | 0.111 nM | 0.0675 nM | 0.15 µg/mL | 0.4 µg/mL | > 30 µg/mL | – | – | – | – | – | –
5 | Ab17 (antibody, human IgG1, kappa, V domains shown, humanized from Ab6; G1; also called Ab1 HC.1 and Ab1 LC.2a) VH: EVQLVQSGAEVKKPGSSVKVSCKASGYTFTTYWMHWVRQAPGQGLEWMGEIDPSDSYSNYNQKFKDRVTITADKSTSTAYMELSSLRSEDTAVYYCARNGGLGPAWFSYWGQGTLVTVSS VL: EIVMTQSPATLSVSPGERATLSCKASQYVGTAVAWYQQKPGQSPRLLIYSASNRYTGVPARFSDSGSGTEFTLTISSLQSEDFAVYFCQQYSSYPWTFGGGTKVEIKR | 1.06 nM | 0.00132 s⁻¹ | 1.25e+06 M⁻¹ s⁻¹ | 0.0788 nM | 0.0766 nM | 0.14 µg/mL | 0.27 µg/mL | > 30 µg/mL | – | – | – | – | – | –
6 | Ab15 (antibody, human IgG1, kappa, V domains shown, humanized from Ab6; G1; also called Ab1 HC.1 and Ab1 LC.1a) VH: EVQLVQSGAEVKKPGSSVKVSCKASGYTFTTYWMHWVRQAPGQGLEWMGEIDPSDSYSNYNQKFKDRVTITADKSTSTAYMELSSLRSEDTAVYYCARNGGLGPAWFSYWGQGTLVTVSS VL: DIQMTQSPSSVSASVGDRVTITCKASQYVGTAVAWYQQKPGKSPKLLIYSASNRYTGVPSRFSDSGSGTDFTLTISSLQPEDFATYFCQQYSSYPWTFGGGTKVEIKR | 0.837 nM | 0.000972 s⁻¹ | 1.16e+06 M⁻¹ s⁻¹ | 0.0551 nM | 0.0781 nM | 0.13 µg/mL | 0.19 µg/mL | > 30 µg/mL | – | – | – | – | – | –
7 | Ab35 (antibody, human IgG1, kappa, humanized from Ab7; G1; also called Ab4 HC.1 and Ab4 LC.1) heavy: not shown light: DIVMTQTPLSLSVTPGQPASISCRSSQSLVHSNGNTYLHWYLQKPGQSPQLLIYKVSNRFSGVPDRFSGSGSGTDFTLKISRVEAEDVGVYYCSQSTHVPFTFGGGTKVEIKRTVAAPSVFIFPPSDEQLKSGTASVVCLLNNFYPREAKVQWKVDNALQSGNSQESVTEQDSKDSTYSLSSTLTLSKADYEKHKVYACEVTHQGLSSPVTKSFNRGEC | 13.3 nM | 0.0016 s⁻¹ | 120000 M⁻¹ s⁻¹ | 0.32 nM | 2.5 nM | 0.38 µg/mL | 0.65 µg/mL | > 30 µg/mL | 1580 nM | 13.5 nM | 0.00142 s⁻¹ | 105000 M⁻¹ s⁻¹ | 0.0785 s⁻¹ | 49800 M⁻¹ s⁻¹
8 | Ab47 (antibody, human IgG1, kappa, V domains shown, humanized from Ab8; G1; also called Ab3 HC.1a and Ab3 LC.1) VH: EVQLVQSGAEVKKPGASVKVSCKASGYTFTDYNIHWVRQAPGQGLEWIGYIYPNNDGTGYNQKFKSRATLTVDNSTSTAYMELRSLRSDDTAVYYCARGDGNYVGDMDYWGQGTTVTVSS VL: DIQMTQSPSSLSASVGDRVTITCRASENIYSYLAWYQQKPGKAPKLLIYNAKTLAEGVPSRFSGSGSGTDFTLTISSLQPEDFATYYCQHHYATPFTFGQGTKLEIKR | – | – | – | 0.119 nM | 0.0819 nM | 0.4 µg/mL | 3.01 µg/mL | > 30 µg/mL | – | – | – | – | – | –
